Source: paper doi:10.1101/718072
Where two headings read alike, the source gives them in different places.

Assays:
[1] = molecular target: FliF (flagellar MS-ring protein) from Salmonella enterica serovar Typhimurium (Salmonella enterica serovar Typhimurium) (UniProt P15928); experiment: cryo-EM structure
[2] = molecular target: FliF (flagellar MS-ring protein) from Salmonella enterica serovar Typhimurium (Salmonella enterica serovar Typhimurium) (UniProt P15928); experiment: cryo-EM structure; remark: listed apart in the source

Substance “FliF (flagellar MS-ring protein) from Salmonella enterica serovar Typhimurium (from UniProt P15928 1-560) (natural protein)” has a stoichiometry N [1] of 34 and a stoichiometry N [2] of 33.
